This assay concerns the target other proteasome components. Description: SEC. Background: SEC sorts molecules by how far they enter the pores of the column.

“PSMA4-BirA*-FLAG (from UniProt P25789 2-261) (natural protein)” showed a share of the BirA* signal that co-elutes with proteasome components of 60%.

The values above are taken from paper doi:10.1101/2022.08.09.503299.
